The results in this text go back to article PMC10705379 (bioRxiv, 2023).

Substitutions are numbered along the chain they refer to. Names and notes keep the numbering of the source.

For data set [1], the system named is Swi6-WT (Schizosaccharomyces pombe). The experiment in a line: EMSA. Conditions: histone H3K9me3.
In data set [2] the target is H3K9me3 mononucleosomes. Description: native gel or EMSA.
Data set [3] concerns the molecule itself. Description: mass photometry.
Data set [4] deals with T1, MBP-Epe1 (S. pombe, UniProt O94603 1-948).
T1 sequence: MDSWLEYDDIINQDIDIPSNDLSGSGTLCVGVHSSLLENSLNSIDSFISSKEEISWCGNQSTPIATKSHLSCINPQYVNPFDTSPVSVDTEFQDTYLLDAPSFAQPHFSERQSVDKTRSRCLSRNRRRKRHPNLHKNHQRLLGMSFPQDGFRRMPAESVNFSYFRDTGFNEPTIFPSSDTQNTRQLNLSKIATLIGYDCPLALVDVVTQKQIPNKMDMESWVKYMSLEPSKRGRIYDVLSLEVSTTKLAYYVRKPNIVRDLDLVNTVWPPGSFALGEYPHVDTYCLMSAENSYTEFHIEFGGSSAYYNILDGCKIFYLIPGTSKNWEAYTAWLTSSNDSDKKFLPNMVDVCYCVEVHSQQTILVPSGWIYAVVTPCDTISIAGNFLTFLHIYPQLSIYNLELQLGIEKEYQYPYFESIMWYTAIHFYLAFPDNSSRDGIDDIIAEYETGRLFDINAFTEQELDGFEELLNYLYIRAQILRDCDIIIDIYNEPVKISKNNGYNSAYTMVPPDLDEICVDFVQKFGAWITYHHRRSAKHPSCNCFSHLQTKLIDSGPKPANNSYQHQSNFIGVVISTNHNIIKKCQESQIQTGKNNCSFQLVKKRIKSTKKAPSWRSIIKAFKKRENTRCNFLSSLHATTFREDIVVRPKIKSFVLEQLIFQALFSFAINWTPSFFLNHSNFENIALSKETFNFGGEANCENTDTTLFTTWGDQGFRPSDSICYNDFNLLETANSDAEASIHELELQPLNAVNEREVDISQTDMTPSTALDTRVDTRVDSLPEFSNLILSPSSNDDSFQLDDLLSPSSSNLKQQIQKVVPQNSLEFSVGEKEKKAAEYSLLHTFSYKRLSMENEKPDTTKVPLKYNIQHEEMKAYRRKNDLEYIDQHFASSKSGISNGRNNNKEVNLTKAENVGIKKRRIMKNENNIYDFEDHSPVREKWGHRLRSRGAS
Description: pull-down.

In data set [1], “H3K9me3 mononucleosome (Epicypher 16-0315-20)” had a Kd of 0.05 µM.
For “Swi6-T278Y (recombinant, full length) (from UniProt P40381 1-328) (natural protein)”, in data set [2], the dissociation constant (Kd) was found to be 0.039 µM and the specificity for H3K9me3 over H3K9me0 mononucleosomes is 2.3 fold.

B1: Swi6-WT (recombinant, full length) (natural protein)
chain: MKKGGVRSYRRSSTSKRSVIDDDSEPELPSMTKEAIASHKADSGSSDNEVESDHESKSSSKKLKENAKEEEGGEEEEEDEYVVEKVLKHRMARKGGGYEYLLKWEGYDDPSDNTWSSEADCSGCKQLIEAYWNEHGGRPEPSKRKRTARPKKPEAKEPSPKSRKTDEDKHDKDSNEKIEDVNEKTIKFADKSQEEFNENGPPSGQPNGHIESDNESKSPSQKESNESEDIQIAETPSNVTPKKKPSPEVPKLPDNRELTVKQVENYDSWEDLVSSIDTIERKDDGTLEIYLTWKNGAISHHPSTITNKKCPQKMLQFYESHLTFRENE
B1: in data set [3], the dissociation constant Kd was 0.00038 µM and the “stoichiometry N” value was found to be 2. In data set [2], this molecule came in with a dissociation constant Kd of 0.05 µM and a specificity for H3K9me3 over H3K9me0 mononucleosomes of 2.4 fold.

B2: Swi6-T278K (recombinant, full length) (natural protein)
chain: B1 chain with T278K
Consider B2, for which, in data set [3], the Kd stood at 0.0002 µM and the “stoichiometry N” value turned out to be 2.

B3: FLAG-Swi6-WT (recombinant) (natural protein)
chain: B1 chain
For B3, in data set [4], the binding result was “binds”.

B4: Swi6-T278Y (recombinant, full length) (natural protein)
chain: B1 chain with T278Y
In the case of B4, in data set [3], the Kd was found to be 0.00027 µM and the “stoichiometry N” value was determined as 2.

One may read the Kd as the constant that tells how readily two partners part at equilibrium. A word on the stoichiometry N: it is the number of molecules, sites or subunits per partner or assembly.
